Measured values: US20120195831A1 (published 2012)

B1: PO-1C9-C4 (antibody, V domains shown)
VH: QVQLQQPGSELVRPGASVKLSCKASGYTFTIFWIHWVKQRPGQGLEWIGNIYPGSGGTNYDEKFKSKATLTVDTFSSTAYMQLSSLTSEDSAVYYCTRWGTGKDYWGQGTTLTVSS
VL: DIVLTQSPAIMSASPGEKVTMTCRARSSVSSSYLHWYQQKPGSSPKLWIYSTSNLALGVPARFSGSGSGTSYSLTISSVEAEDAATYYCQQYDSSPFTFGTGTKLEIKR
notes: Purified mouse IgG from a hybridoma; also called PO-1C9-C4-HC; PO-1C9-C4-LC
B2: PO-3H7-E3 (antibody, V domains shown)
VH: EVQLQQSGAELVKPGASVKISCKASGYSFTGYYMNWVKQSHGKSLEWIGNINPYYGGSNYNQKFKARATLTVDKSSSTAYMQLNSLTSEDSAVYYCARKGDLYYSMDYWGQGTSVTVSS
VL: DIVMTQTPLSLPVSLGDQASISCRSSQSIVHSNGNTYLEWYLQKPGQSPKLLIYKVSNRFSGVPDRFSGSGSGTDFTLKISRVEAEDLGIYYCFQGSHVPPTFGGGTKLELKR
notes: Purified mouse IgG from a hybridoma; also called PO-3H7-E3-HC; PO-3H7-E3-LC
B3: PO-1G2-B6 (antibody, V domains shown)
VH: EVQLQQSGPELVKPGASVKISCKASGYSFTGYHIHWMKQSHVESLEWIGRINPYSGVTDYNQNFKDKANLTVDQSSSTAYMELHSLTSEDSAFYYCARTDYYGPWFAYWGQGTLVTVSA
VL: DIQMTQSPLSLPVSLGDQASISCRSSPSLVHSNGNTYLHWYLQKPGQSPKLLIYTVSNRFSGVPDRFSGSGSGTDFTLKINRVEAEDLGVYFCSQTTHVPWTFGGGTKLEIKR
notes: Purified mouse IgG from a hybridoma; also called PO-1G2-B6-HC; PO-1G2-B6-LC

Key:
[1] = target: T1, human Her3 receptor on cells (T47D, MCF7) (human, UniProt P21860 20-1342); experiment: cell-based or functional assay
T1 sequence (P21860 20-1342 limits assumed, stated change not applied): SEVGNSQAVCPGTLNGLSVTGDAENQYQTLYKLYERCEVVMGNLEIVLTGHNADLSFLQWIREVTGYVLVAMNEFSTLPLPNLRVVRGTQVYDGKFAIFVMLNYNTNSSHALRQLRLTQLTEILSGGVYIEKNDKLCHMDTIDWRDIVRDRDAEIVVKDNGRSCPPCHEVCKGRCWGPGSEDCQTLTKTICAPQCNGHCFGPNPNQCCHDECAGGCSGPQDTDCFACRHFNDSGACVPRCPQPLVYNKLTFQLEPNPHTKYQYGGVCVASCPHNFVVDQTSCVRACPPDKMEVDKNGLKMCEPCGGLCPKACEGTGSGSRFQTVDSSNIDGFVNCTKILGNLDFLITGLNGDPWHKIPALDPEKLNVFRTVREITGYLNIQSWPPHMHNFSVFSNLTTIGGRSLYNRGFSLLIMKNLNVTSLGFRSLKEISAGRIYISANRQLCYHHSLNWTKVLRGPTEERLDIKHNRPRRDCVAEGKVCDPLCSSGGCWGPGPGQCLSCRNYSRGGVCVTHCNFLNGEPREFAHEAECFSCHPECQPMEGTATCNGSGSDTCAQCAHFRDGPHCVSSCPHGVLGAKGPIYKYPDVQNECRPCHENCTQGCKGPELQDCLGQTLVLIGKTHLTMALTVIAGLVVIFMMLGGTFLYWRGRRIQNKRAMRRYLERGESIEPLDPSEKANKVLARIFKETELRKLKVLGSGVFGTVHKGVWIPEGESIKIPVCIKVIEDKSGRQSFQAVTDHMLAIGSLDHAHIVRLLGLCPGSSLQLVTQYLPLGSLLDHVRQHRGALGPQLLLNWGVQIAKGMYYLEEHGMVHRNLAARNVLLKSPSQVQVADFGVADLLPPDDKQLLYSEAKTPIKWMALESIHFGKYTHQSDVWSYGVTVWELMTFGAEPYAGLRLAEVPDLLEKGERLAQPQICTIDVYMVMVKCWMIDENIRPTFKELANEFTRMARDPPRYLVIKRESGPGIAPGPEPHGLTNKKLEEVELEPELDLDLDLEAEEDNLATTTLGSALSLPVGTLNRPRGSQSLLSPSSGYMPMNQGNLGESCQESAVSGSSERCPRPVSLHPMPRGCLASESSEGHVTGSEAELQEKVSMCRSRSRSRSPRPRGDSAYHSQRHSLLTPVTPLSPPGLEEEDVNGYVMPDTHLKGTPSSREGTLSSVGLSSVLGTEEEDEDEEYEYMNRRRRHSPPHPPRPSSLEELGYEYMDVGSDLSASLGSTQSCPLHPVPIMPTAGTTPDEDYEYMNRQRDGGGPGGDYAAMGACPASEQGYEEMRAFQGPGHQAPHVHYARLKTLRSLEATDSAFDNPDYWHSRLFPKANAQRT

[2] = target: T1, human Her3 receptor on cells (T47D, …); experiment: cell-based or functional assay; remark: listed apart in the source
[3] = target: T1, human Her3 receptor on cells (T47D, …); experiment: cell-based or functional assay; remark: listed apart in the source
[4] = target: T1, human Her3 receptor on cells (T47D, …); experiment: cell-based or functional assay; remark: listed apart in the source
[5] = target: T2, EGFR on CHO cells (CHO-EGFR) (UniProt P00533 25-1210, limits assumed); experiment: FACS on CHO-EGFR cells, purified IgG, R-PE anti-mouse IgG
T2 construct: whole, on cells
Experimental: (§1) CHO-Her2, CHO-Her4, CHO-EGFR cells were harvested and resuspended in PBS, 2% FBS at a concentration of approximately 1×10⁶/ml. Cells were stained with purified IgGs at 4° C. for 40 min. Cells were washed with 4 mL PBS, 2% FBS, then centrifuged at 1200 rpm for 10 minutes. Supernatant was removed. Cells were stained with R-PE conjugated anti-mouse IgG at 4° C. for 30 min. Cells were washed with 4 mL PBS, 2% FBS, then centrifuged at 1200 rpm for 10 minutes. Supernatant was removed and cell pellets were fixed in 1% formaldehyde. Cells were analyzed on a FACS Calibur (BD Biosciences) by collecting 20,000 events from gate 1.

[6] = target: T3, Her2 on CHO cells (CHO-Her2) (UniProt P04626 23-1255, limits assumed); experiment: FACS on CHO-Her2 cells, purified IgG, R-PE anti-mouse IgG
T3 construct: whole, on cells
Experimental: as §1

[7] = target: T4, Her4 on CHO cells (CHO-Her4) (UniProt Q15303 26-1308, limits assumed); experiment: FACS on CHO-Her4 cells, purified IgG, R-PE anti-mouse IgG
T4 construct: whole, on cells
T4 sequence (Q15303 26-1308 limits assumed): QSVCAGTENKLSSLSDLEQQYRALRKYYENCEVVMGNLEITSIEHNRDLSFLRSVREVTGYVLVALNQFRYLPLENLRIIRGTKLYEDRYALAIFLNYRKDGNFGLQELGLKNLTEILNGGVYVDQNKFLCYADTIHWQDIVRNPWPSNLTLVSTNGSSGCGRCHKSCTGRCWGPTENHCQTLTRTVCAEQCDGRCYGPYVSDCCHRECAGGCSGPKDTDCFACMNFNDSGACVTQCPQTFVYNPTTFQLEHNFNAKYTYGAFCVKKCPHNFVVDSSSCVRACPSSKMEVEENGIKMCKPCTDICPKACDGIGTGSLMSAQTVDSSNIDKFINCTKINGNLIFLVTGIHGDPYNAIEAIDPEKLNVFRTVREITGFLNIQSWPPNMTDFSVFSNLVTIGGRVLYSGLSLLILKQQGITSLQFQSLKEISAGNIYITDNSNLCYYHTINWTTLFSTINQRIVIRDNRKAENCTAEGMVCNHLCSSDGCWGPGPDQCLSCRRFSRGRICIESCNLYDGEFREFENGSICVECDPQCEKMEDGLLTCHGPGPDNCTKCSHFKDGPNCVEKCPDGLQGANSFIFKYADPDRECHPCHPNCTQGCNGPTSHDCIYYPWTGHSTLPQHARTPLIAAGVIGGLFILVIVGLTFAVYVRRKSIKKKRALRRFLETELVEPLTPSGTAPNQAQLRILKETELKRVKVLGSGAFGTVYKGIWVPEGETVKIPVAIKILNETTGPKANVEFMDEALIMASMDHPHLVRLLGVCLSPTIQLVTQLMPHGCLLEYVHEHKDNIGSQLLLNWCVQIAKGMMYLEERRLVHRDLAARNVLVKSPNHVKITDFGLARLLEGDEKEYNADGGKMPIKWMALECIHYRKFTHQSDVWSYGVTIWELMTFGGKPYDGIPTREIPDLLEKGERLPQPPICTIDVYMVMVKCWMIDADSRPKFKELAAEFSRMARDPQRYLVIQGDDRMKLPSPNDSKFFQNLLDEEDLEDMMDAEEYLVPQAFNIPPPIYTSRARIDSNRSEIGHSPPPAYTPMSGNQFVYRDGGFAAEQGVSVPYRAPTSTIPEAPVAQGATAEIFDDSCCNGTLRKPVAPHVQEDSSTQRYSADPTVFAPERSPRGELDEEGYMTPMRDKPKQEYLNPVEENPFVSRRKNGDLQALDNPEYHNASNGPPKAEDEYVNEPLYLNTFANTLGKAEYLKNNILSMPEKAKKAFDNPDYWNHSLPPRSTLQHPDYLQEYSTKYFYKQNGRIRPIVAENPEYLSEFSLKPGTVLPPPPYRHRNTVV
Experimental: as §1

[8] = target: T5, Recombinant Human Her3 (Her3/ErbB3 extracellular domain) (human, UniProt P21860 20-643); experiment: SPR (BIAcore), Mab captured by anti-IgG Fc on CM5 chip, recombinant human Her3 as analyte, 25 °C
T5 construct: Analyte of the BIAcore assay; also called Her3 ECD; human Her3/ErbB3 extracellular domain
T5 sequence (P21860 20-643 limits assumed): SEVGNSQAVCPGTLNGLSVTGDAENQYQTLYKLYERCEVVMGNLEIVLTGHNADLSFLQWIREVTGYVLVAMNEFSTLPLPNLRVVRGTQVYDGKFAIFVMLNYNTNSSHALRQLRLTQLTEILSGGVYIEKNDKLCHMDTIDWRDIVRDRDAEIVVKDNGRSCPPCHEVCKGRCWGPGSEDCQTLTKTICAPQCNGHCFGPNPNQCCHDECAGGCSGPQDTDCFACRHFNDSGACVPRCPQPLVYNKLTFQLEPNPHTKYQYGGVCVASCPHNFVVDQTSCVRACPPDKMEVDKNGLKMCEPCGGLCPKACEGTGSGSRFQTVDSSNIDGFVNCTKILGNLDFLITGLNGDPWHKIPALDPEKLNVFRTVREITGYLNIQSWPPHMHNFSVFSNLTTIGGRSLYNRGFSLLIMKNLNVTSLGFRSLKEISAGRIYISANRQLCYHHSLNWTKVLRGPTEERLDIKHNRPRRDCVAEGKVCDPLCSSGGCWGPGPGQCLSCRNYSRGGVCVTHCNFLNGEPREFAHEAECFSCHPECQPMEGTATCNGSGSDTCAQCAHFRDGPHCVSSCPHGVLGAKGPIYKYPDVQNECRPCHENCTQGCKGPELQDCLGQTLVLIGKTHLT
Experimental: All experiments were performed at 25° C. at a flow rate of 40 μl/min. To prepare a BIAcore assay, an anti-human IgG-Fc antibody (50 μg/ml each in acetate buffer, pH 5.0) was immobilized onto a carboxymethyl dextran sensorchip (CM5) using amine coupling procedures as described by the manufacturer. 10000 resonance units (RU) of anti-mouse IgG Fc antibodies were linked respectively onto Flowcells (FC) 1 and 2. Purified Mabs to be tested were diluted at a concentration of 5 μg/ml in 0.5% P20, HBS-EP buffer and injected on FC2 to reach 500 to 1000 RU. FC1 was used as the reference cell. Specific signals correspond to the difference of signals obtained on FC2 versus FC1. The analyte (Recombinant Human Her3, apparent molecular weight 97 kDa) was injected during 90 sec at 5 different concentrations (100, 50, 25, 12.5 and 6.25 nM) in 0.5% P20, HBS-EP buffer. These concentrations were prepared from stock solution in 0.5% P20, HBS-EP. The dissociation phase of the analyte was monitored over a 10 minutes period. Running buffer was also injected under the same conditions as a double reference. After each cycle (antibody+Her3 injection), both Flowcells were regenerated by injecting 20 to 45 μl of Glycine-HCl buffer pH 1.5. This regeneration is sufficient to eliminate all Mabs and Mabs/Her3 complexes captured on the sensorchip. Table 1 listed binding KD for Her3 binding monoclonal antibodies.

Her3/Avi/His10 receptor [9] = target: T6, Her3/Avi/His10 receptor (Homo sapiens (Human), UniProt P21860 20-643, limits assumed); experiment: AlphaScreen competition; antibody titrated against 10 nM biotinylated NRG-1 beta and 10 nM Her3/Avi/His10; n = 3
T6 construct: Soluble tagged receptor of the AlphaScreen assay; The antibodies are called anti-hHer3 there; not shown: Avi tag; His10 tag (ten histidines by its name)
T6 sequence (P21860 20-643 limits assumed): as above
Experimental: (§2) SDI or Genovac purified anti-hHer3 Mabs were serially diluted two-fold into an assay buffer made from 25 mM Hepes, 100 mM NaCl, 0.5% BSA and 0.05% Tween20 in an opaque/white, half-well area plate (Costar). Mouse IgG1 antibody was used as a negative control (Southern Biotech; cat #010201). Biotinylated NRG-1 beta ligand and Her3/Avi/His₁₀ receptor were added sequentially at 10 nM concentration to the assay plate containing serially diluted antibodies. This mixture of receptor, ligand and the antibodies was incubated at room temperature with gentle shaking for 90 minutes. AlphaScreen Streptavidin Donor beads and His-Nickel chelate Acceptor beads were added into the assay at a final concentration of 20 μg/ml each. The light sensitive beads were handled under chromagreen filtered light. The assay plates were covered with foil and incubated at room temperature with gentle shaking for 1 hour. The plates were read in PE EnVision plate reader equipped with an Alpha module (dedicated laser for excitation and designed to measure the signal above the well). Table 7 listed IC₅₀ values in ligand blocking that were estimated using four parameter curve fitting with concentration titration graphs (FIGS. 7 A&B).

Her3/Avi/His10 receptor [10] = target: T6, Her3/Avi/His10 receptor; experiment: AlphaScreen ligand blocking: antibody titrated against 10 nM biotinylated NRG-1 beta and 10 nM Her3/Avi/His10, % signal
Experimental: as §2

mouse HER3/ErbB3 = target: T7, mouse HER3/ErbB3 (mouse, UniProt Q61526); experiment: FACS, purified IgG on CHO cells expressing mouse Her3, R-PE anti-mouse IgG
T7 construct: receptor expressed on CHO cells; also called mouse Her3 receptor on CHO cells
T7 sequence (Q61526 20-1339 limits assumed): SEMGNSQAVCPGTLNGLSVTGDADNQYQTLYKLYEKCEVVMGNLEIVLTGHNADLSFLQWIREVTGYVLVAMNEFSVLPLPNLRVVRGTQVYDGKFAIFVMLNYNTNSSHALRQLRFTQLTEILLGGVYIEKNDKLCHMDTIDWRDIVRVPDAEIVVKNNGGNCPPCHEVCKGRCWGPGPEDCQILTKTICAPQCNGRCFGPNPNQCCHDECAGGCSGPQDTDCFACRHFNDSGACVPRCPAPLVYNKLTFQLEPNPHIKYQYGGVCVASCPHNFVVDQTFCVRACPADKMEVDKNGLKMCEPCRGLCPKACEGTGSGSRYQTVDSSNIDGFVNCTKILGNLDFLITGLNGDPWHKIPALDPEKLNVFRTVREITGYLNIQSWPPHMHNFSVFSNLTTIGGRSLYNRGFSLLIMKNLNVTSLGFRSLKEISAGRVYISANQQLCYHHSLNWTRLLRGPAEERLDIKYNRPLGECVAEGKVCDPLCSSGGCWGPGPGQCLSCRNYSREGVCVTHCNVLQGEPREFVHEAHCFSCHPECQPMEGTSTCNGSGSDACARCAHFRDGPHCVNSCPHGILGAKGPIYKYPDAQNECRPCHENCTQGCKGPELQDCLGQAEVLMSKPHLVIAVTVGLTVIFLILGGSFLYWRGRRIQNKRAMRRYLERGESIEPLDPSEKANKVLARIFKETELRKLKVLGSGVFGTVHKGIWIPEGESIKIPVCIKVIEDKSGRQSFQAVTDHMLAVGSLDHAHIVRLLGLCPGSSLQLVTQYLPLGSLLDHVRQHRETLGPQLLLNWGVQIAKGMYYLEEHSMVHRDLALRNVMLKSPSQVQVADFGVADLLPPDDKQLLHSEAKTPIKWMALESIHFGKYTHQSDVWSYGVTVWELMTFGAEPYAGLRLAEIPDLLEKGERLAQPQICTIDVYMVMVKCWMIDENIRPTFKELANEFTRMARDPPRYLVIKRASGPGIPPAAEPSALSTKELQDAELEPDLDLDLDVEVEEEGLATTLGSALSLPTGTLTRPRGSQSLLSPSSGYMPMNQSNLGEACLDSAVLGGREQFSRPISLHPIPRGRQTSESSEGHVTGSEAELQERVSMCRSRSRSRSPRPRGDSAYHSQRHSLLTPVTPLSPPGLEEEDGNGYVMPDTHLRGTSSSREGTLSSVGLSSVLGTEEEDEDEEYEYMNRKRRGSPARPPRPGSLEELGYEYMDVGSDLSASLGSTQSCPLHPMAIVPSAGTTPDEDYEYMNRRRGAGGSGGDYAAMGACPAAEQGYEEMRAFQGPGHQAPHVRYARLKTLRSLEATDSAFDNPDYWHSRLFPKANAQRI
Experimental: as §1, with “CHO cell lines expressing human or mouse Her3 receptors were used to study species-cross reactivity. Cells” for “CHO-Her2, CHO-Her4, CHO-EGFR cells”

Binder | % Receptor Internalization (T47D cells, FACS) [1] [%] | IC50 of inhibition of pHer3 (MCF7 cells stimulated with rhNRG1-β1, ELISA) [2] [nM] | IC50 of pAKT inhibition (MCF7 cells stimulated with rhNRG1-β1, ELISA) [3] [nM] | IC50 of pERK inhibition (MCF7 cells stimulated with rhNRG1-β1, MSD) [4] [nM] | binding result [5] | binding result [6] | binding result [7] | Kd [8] [nM] | IC50 (Her3/Avi/His10 receptor [9]) [nM] | IC50 (Her3/Avi/His10 receptor [10]) [nM] | binding result (mouse HER3/ErbB3)
B1 | 41 | 6.99 | 9.47 | 4.62 | no binding | no binding | no binding | 2.4 | 2.7 | 2.9 | –
B2 | 14 | 4.98 | 45.2 | – | no binding | no binding | no binding | 1.6 | 12.7 | 11 | binds
B3 | 13 | 2.91 | – | 290 | no binding | no binding | no binding | 5.5 | 72.8 | 42.6 | binds
